Patent publication EP2168984B1 (Abbott GmbH & Co. KG, dated 2012)
Substitutions are numbered along the chain they refer to. Names may count otherwise.

Assays:
recombinant human IL-12 [1] = biological target: T1, recombinant human IL-12 (human, UniProt P29459 23-219; P29460 23-328); experiment: cell-based or functional assay
T1 sequence (looked up) 1: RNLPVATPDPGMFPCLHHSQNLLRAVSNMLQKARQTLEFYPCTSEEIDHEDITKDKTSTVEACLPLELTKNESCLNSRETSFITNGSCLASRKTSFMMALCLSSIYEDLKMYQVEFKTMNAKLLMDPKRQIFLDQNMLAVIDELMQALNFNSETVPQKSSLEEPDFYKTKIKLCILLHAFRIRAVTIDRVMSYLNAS
T1 sequence (looked up) 2: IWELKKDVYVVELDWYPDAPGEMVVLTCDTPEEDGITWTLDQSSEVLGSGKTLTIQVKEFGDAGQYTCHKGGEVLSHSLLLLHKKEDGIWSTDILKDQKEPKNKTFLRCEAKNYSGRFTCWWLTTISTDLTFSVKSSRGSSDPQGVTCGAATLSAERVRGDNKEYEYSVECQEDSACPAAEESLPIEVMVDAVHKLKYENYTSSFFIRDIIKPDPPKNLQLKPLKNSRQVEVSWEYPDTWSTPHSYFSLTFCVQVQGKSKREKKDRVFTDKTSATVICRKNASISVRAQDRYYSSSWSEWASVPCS

Cyno IL-12 = biological target: T2, Cyno IL-12 (cynomolgus monkey); experiment: cell-based or functional assay
T2 chain 1: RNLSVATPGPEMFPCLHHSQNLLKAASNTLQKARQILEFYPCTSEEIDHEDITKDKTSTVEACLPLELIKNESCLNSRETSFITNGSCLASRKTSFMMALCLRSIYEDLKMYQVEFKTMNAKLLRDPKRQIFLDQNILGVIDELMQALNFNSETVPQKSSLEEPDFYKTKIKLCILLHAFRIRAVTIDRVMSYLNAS
T2 chain 2: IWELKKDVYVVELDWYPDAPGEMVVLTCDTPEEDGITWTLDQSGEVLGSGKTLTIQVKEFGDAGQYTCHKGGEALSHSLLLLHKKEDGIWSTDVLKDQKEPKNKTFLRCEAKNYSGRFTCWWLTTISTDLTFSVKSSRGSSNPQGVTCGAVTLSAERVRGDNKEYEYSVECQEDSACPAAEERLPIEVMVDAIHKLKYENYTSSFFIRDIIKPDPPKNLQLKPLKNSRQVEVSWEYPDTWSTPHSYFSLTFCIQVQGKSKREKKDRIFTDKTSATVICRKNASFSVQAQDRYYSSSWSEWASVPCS

recombinant human IL-12 [2] = biological target: T1, recombinant human IL-12; experiment: cell-based or functional assay; remark: listed apart in the source
recombinant human IL-12 [3] = biological target: T3, recombinant human IL-12 (human, UniProt P29459 23-219; P29460 23-328); experiment: BIAcore SPR, immobilised IL-12
T3 construct: disulfide-linked p35/p40 heterodimer; also called hIL-12; rhIL-12
T3 sequence (looked up) 1: T1 sequence (looked up) 1
T3 sequence (looked up) 2: T1 sequence (looked up) 2

Dog IL-12 = biological target: T4, Dog IL-12 (dog, UniProt Q28267 26-222; Q28268 23-329); experiment: cell-based or functional assay
T4 sequence (looked up) 1: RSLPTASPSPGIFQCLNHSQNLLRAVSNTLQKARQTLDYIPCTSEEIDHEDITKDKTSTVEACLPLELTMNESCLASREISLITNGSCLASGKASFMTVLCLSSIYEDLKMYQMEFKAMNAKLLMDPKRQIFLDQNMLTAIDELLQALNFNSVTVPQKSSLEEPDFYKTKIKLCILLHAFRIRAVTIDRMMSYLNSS
T4 sequence (looked up) 2: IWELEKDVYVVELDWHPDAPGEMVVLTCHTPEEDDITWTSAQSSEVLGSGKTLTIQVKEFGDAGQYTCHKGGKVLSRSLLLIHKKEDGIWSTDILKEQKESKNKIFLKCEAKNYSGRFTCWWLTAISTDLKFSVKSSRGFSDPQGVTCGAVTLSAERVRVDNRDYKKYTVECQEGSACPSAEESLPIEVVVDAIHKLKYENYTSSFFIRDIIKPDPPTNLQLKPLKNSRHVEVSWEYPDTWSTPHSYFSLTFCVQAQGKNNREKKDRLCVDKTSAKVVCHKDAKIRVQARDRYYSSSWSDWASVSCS

Rhesus IL-12 = biological target: T5, Rhesus IL-12 (rhesus monkey, UniProt P48091 23-219; P48095 23-328); experiment: cell-based or functional assay
T5 sequence (looked up) 1: T2 chain 1
T5 sequence (looked up) 2: T2 chain 2

Baboon IL-12 = biological target: T6, Baboon IL-12 (baboon); experiment: cell-based or functional assay
T6 chain 1: T2 chain 1 with F82V, N85K, K110Q, M111I, R125M, K172R
T6 chain 2: T2 chain 2 with V230A

recombinant human IL-12 [4] = biological target: T1, recombinant human IL-12; experiment: cell-based or functional assay; remark: listed apart in the source

B1: Y61 IgG (antibody, V domains shown)
VH: QVQLVQSGGGVVQPGRSLRLSCAASGFTFSSYGMHWVRQAPGKGLEWVAFIRYDGSNKYYADSVKGRFTISRDNSKNTLYLQMKSLRAEDTAVYYCKTHGSHDNWGQGTMVTVSS
VL: SYVLTQPPSVSGTPGQRVTISCSGGRSWIGSNTVKWYQQLPGTAPKLLIYGNDQRPSGVPDRFSGSKSGTSASLAITGVQAEDEADYYCQSYDRGTHPALLFGTGTKVTVLG
Recombinant human IL-12 [1]
  IC50 (M), species cross reactivity bioassay: 1.7e-10 M
Cyno IL-12
  IC50 (M), species cross reactivity bioassay: 2.2e-10 M

B2: Y139 (scFv, V domains shown)
VH: B1 VH
VL: SYVLTQPPSVSGTPGQRVTISCSGGRSNIGSNTVKWYQQLPGTAPKLLIYGNDQRPSGVPDRFSGSKSGTSASLAITGVQAEDEADYYCQSYDRGSHPALTFGTGTKVTVL
Recombinant human IL-12 [2]
  IFN gamma IC50: 0.16 nM

B3: 177-H10 (scFv, V domains shown)
VH: B1 VH
VL: B2 VL with S96T, A99T, L100M, T101Y
Recombinant human IL-12 [3]
  koff: 0.344 s⁻¹

B4: J695 (Y61-L94Y- L50Y IgG*) (antibody, V domains shown)
VH: B1 VH with Q6E, K84N
VL: B1 VL with S1Q, Y2S, T13A, G25S, W28N, G51Y, V79L, G95Y
Recombinant human IL-12 [1]
  IC50 (M), species cross reactivity bioassay: 5e-12 M
Dog IL-12
  IC50 (M), species cross reactivity bioassay: 3.5e-10 M
Rhesus IL-12
  IC50 (M), species cross reactivity bioassay: 1e-11 M
Cyno IL-12
  IC50 (M), species cross reactivity bioassay: 1e-11 M
Baboon IL-12
  IC50 (M), species cross reactivity bioassay: 1.5e-11 M
Recombinant human IL-12 [4]
  PHA blast Assay IC50: 0.0058 nM
